≈ marks a conversion by molar mass, not a printed value. Where “and” joins values, the source holds several entries; their conditions need not be identical. Equal entries are not always repeated. Ends that are not written are not given here. Peptide text beside a SMILES is read from it.
What follows are molecules tested against T1, LepB Δ2-76 His-SUMO (Escherichia coli signal peptidase I) (Escherichia coli, UniProt P00803) (assay: biochemical). Details: not given.
T1 construct: purchased Sapphire Bioscience
Format: binding
Source text: Surface plasmon resonance (SPR) analysis on a Pioneer FE system (Sartorius, Göttingen, Germany) was used to determine the on- and off-rates of custom peptides (Mimotopes, Mulgrave, VIC, Australia) with purchased LepB (Sapphire Bioscience, Redfern, NSW, Australia) ([9]). Briefly, LepB Δ2-76 His-SUMO was immobilized onto a CDH chip (Sartorius, Göttingen, Germany) onto flow cells 1 and 3 by an amine coupling reaction using 0.2 M 1-ethyl-3-[(3-dimethylamino)propyl]-carbodiimide (EDC) and 0.05 M N-hydroxysuccinimide (NHS). The EDC-NHS mix was caused to flow over at 15 μL/min for 100 s, LepB was injected at 10 μL/min for 10 min, and then ethanolamine was caused to flow over at 10 μL/min for 10 min. Flow cell 2 was used as a reference cell, and no LepB was injected over this cell. The assay was performed using a OneStep assay method with 75% of the loop. Peptides were caused to flow over the flow cells at a concentration of 50 μM at a flow rate of 50 μL/min with a dissociation period of 180 s. A regeneration cycle at a flow rate of 50 μL/min for 3 min with Tris-EDTA (TE) was completed after every cycle. Data were collected in triplicate, and analysis was completed with the Qdat analysis software (Sartorius, Göttingen, Germany; see Fig. S1 in the supplemental material).

| Molecule | Kd |
| --- | --- |
| GGTWAAFNDV [Peptide 03] | 8.71 ± 2.14 µM |
| VGGGTWAAFETL [Peptide 02] | 12.8 ± 2.55 µM |
| VGGGTWAAIEEGKL [Peptide 04] | 8.83 ± 2.59 µM |
| C[C@H](N)C(=O)N[C@@H](C)C(=O)N[C@@H](Cc1ccccc1)C(=O)N[C@@H](CCC(=O)O)C(=O)O [Peptide 11] (H-AAFE-OH) | 18.5 ± 0.62 µM |
| TWAAIE [Peptide 08] | 0.7 ± 0.35 µM |
| GGGTWAAFEEGK [Peptide 01] | 10.3 µM |
| GGGTWAAIE [Peptide 06] | 17.3 ± 0.2 µM |
| TWAAFN [Peptide 07] | 5.38 ± 0.2 µM |

Same assay, conditions: SPR OneStep, LepB amine-coupled to CDH chip, peptide 50 μM, dissociation 180 s; mean ± standard error, triplicate

| Molecule | Kd off-rate |
| --- | --- |
| GGTWAAIE [Peptide 10] | 0.00421 s⁻¹ and 0.00421 ± 0.00049 s⁻¹ |

Same assay, conditions: SPR OneStep, Pioneer FE, LepB amine-coupled to CDH chip, peptide 50 μM, flow 50 μL/min; mean ± standard error, triplicate

| Molecule | Ka on-rate |
| --- | --- |
| GGTWAAIE [Peptide 10] | 4770 ± 590 M⁻¹ s⁻¹ |

The molecules below were run on E. coli MG1655 (empty pBAD) and E. coli BL21(DE3) (empty pET15b) (assay: MIC assay against E. coli). Details: rich (Mueller-Hinton) and M9 minimal media, with or without subinhibitory DMSO (5%); overnight 37°C; peptides 08 and 10 from 0.5 mg/mL, 11 from 1 mg/mL.
Format: cell-based, Escherichia coli
Procedure: (§1) The resistance to the peptides was determined using MIC methods as previously described ([31]). Briefly, 5 × 10^5 cells were added to a 96-well plate which contained a peptide 2-fold serially diluted in either M9 minimal medium containing 5% DMSO and 0.2% glucose or Mueller-Hinton medium containing 5% DMSO. Plates were incubated overnight at 37°C, and the MIC result was scored as the last set of wells that contained no growth of bacteria. Bacteria tested were E. coli MG1655 containing an empty pBAD plasmid, E. coli BL21(DE3) containing an empty pET15b plasmid, S. aureus FDA209, and S. aureus USA300. Peptides 08 and 10 were tested from 0.5 mg/mL, and peptide 11 was tested from 1 mg/mL.

| Molecule | MIC |
| --- | --- |
| GGTWAAIE [Peptide 10] | No MIC was observed |

What follows are molecules tested on Staphylococcus aureus USA300 (assay: not given). Details: strain USA300, rich medium, subinhibitory DMSO (5%), overnight 37°C.
Format: cell-based
Procedure: as §1

| Molecule | MIC |
| --- | --- |
| C[C@H](N)C(=O)N[C@@H](C)C(=O)N[C@@H](Cc1ccccc1)C(=O)N[C@@H](CCC(=O)O)C(=O)O [Peptide 11] (H-AAFE-OH) | 1000 µg/mL (≈ 2290 µM) |

These molecules were tested on Staphylococcus aureus FDA209 (assay: not given). Details: strain FDA209, rich medium, subinhibitory DMSO (5%), overnight 37°C.
Format: cell-based
Procedure: as §1

| Molecule | MIC |
| --- | --- |
| C[C@H](N)C(=O)N[C@@H](C)C(=O)N[C@@H](Cc1ccccc1)C(=O)N[C@@H](CCC(=O)O)C(=O)O [Peptide 11] (H-AAFE-OH) | 1000 µg/mL (≈ 2290 µM) |

Each molecule was assayed against LepB Δ2-76 His-SUMO (Escherichia coli) (UniProt P00803) (assay: SPR; LepB Δ2-76 His-SUMO amine-coupled (EDC/NHS) to a CDH chip, Pioneer FE; OneStep method with 75% of the loop; peptides flowed at 50 μM, 50 μL/min, 180 s dissociation; regeneration with Tris-EDTA; triplicate). Details: not given.

| koff | kon | Molecule |
| --- | --- | --- |
| 0.00239 s⁻¹ | 2500 M⁻¹ s⁻¹ | TWAAIE [peptide 08] |
| 0.321 s⁻¹ | 60400 M⁻¹ s⁻¹ | TWAAFN [peptide 07] |
| 0.17 s⁻¹ | 26400 M⁻¹ s⁻¹ | VGGGTWAAIEEGKL [peptide 04] |
| 0.947 s⁻¹ | 146000 M⁻¹ s⁻¹ | GGTWAAFNDV [peptide 03] |
| 0.442 s⁻¹ | 15900 M⁻¹ s⁻¹ | AAFE [peptide 11] |
| 0.0208 s⁻¹ | 1200 M⁻¹ s⁻¹ | GGGTWAAIE [peptide 06] |
| 0.0434 s⁻¹ | 4440 M⁻¹ s⁻¹ | GGGTWAAFEEGK [peptide 01] |
| 0.0147 s⁻¹ | 1140 M⁻¹ s⁻¹ | VGGGTWAAFETL [peptide 02] |

The molecules below were run against T2, LepB Δ2-76 (Escherichia coli, UniProt P00803) (assay: biochemical). Details: not given.
T2 construct: made in house; host or cells: E. coli BL21(DE3)
Procedure: The cleavage of the fluorescent peptide, Dabcyl-[…]-Edans, by LepB leads to an increase in relative fluorescence over time. If the ability of LepB to cleave this peptide is inhibited, the increase in relative fluorescence per second should decrease in a concentration-dependent manner.
A reaction in a 100-μL reaction mixture in phosphate-buffered saline (PBS) (pH 7.4) containing 0.1% Triton X-100 was initiated by adding 450 nM LepB Δ2-76 to a black, clear-bottom 96-well plate (Corning, Corning, NY, USA). In triplicate, wells contained a 2-fold serial dilution of the peptide being tested from 0.5 mg/mL and 10 μM fluorescent peptide, Dabcyl-[…]-Edans (Mimotopes, Mulgrave, VIC, Australia). While the peptide containing the two fluorophores is intact, the Edans emission is quenched by Dabcyl through FRET. However, once the peptide is cleaved by LepB, the fluorophores are no longer in close enough proximity for the transfer of energy and the fluorescence emission of Edans is recorded. The cleavage of the fluorescent peptide by LepB was recorded using an excitation wavelength of 340 nm and an emission wavelength of 490 nm recorded every 2 min for 30 min in a Tecan Infinite 200 Pro plate reader. Data were analyzed using the formula [(RFU2 − RFU1)/(time2 − time1)] = RFU/s on the linear portion of the reaction (where RFU stands for relative fluorescent units), and the absolute IC50 was determined using the simple linear regression analysis on Prism 9.

| Molecule | IC50 |
| --- | --- |
| GGTWAAFNDV [Peptide 03] | 1160 µM |
| VGGGTWAAFETL [Peptide 02] | 1010 µM |
| VGGGTWAAIEEGKL [Peptide 04] | 1680 µM |
| C[C@H](N)C(=O)N[C@@H](C)C(=O)N[C@@H](Cc1ccccc1)C(=O)N[C@@H](CCC(=O)O)C(=O)O [Peptide 11] (H-AAFE-OH) | 3790 µM |
| TWAAIE [Peptide 08] | 647 µM |
| GGGTWAAFEEGK [Peptide 01] | 1600 µM |
| GGGTWAAIE [Peptide 06] | 4520 µM |
| TWAAFN [Peptide 07] | 1970 µM |
| GGTWAAFE [Peptide 05] | 967 µM |

These molecules were tested against LepB Δ2-76 (Escherichia coli (strain DH5α)) (UniProt P00803) (assay: not given). Details: not given.

| IC50 of LepB cleavage of the fluorescent peptide Dabcyl-DAPPAKAA-Edans (FRET enzyme assay) | Molecule |
| --- | --- |
| 446 µg/mL | TWAAIE [peptide 08] |
| 1390 µg/mL | TWAAFN [peptide 07] |
| 810 µg/mL | GGTWAAFE [peptide 05] |
| 2340 µg/mL | VGGGTWAAIEEGKL [peptide 04] |
| 1210 µg/mL | GGTWAAFNDV [peptide 03] |
| 1660 µg/mL | AAFE [peptide 11] |
| 3890 µg/mL | GGGTWAAIE [peptide 06] |
| 1930 µg/mL | GGGTWAAFEEGK [peptide 01] |
| 1220 µg/mL | VGGGTWAAFETL [peptide 02] |

Reference: publication PMC10269814, “New Perspectives on Escherichia coli Signal Peptidase I Substrate Specificity: Investigating Why the TasA Cleavage Site Is Incompatible with LepB Cleavage” (Microbiology Spectrum, 2023)
